Consider two molecules from publication PMC4847170, “Insights into the DNA-binding mechanism of a LytTR-type transcription regulator”.

Substitutions are numbered along the chain they refer to.

Holding throughout (details): protein: recombinant; tags: N-terminal 6His; chain copies: 2; label: 5' biotin on strand 1; blunt
The target in data set [1] is T1, YpdB-D53E (Escherichia coli, UniProt P0AE39 1-244, D53E).
T1 sequence: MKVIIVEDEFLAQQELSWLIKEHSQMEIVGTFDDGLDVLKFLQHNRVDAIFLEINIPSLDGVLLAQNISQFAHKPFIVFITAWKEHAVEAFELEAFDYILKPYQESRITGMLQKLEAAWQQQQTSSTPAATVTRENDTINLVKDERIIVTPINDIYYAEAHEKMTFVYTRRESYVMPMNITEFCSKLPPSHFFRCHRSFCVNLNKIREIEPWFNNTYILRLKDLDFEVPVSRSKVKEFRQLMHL
Nature of the data set: SPR; overall affinity from maximal binding rates, active protein concentration; SPR (Biacore T200, SA chip): HBS-EP, 10 mM HEPES pH 7.4, 150 mM NaCl, 3 mM EDTA, 0.005% P20, 25 C. In general terms: SPR reads the build-up and loss of mass on a sensor chip optically.

The next data set deals with T2, YpdB (Escherichia coli, UniProt P0AE39 1-244).
T2 sequence: T1 sequence with E53D
Put plainly: SPR; 1-50 nM protein; lower maximal binding rate and affinity than D53E; SPR (Biacore T200, SA chip): HBS-EP, 10 mM HEPES pH 7.4, 150 mM NaCl, 3 mM EDTA, 0.005% P20, 25 C.

For data set [2], the target named is T1, YpdB-D53E. Nature of the data set: SPR; 1-50 nM protein; binding completely abolished; SPR (Biacore T200, SA chip): HBS-EP, 10 mM HEPES pH 7.4, 150 mM NaCl, 3 mM EDTA, 0.005% P20, 25 C.

B1: PyhjX (dsDNA)
DNA 1: GGGGCGCGTCATTCATTCCTGAACTAAGGCATTTCATTCCGTTCTGATGGCATTTCATGCCGGGGG
DNA 2: CCCCCGGCATGAAATGCCATCAGAACGGAATGAAATGCCTTAGTTCAGGAATGAATGACGCGCCCC
The Kd is a measure of binding affinity in units of concentration. With B1, in the data set with YpdB-D53E [1], the Kd was found to be 0.01 µM. In the data set with YpdB, the binding result is on record as “binds”.

B2: PyhjX_A (site A inactivated) (dsDNA)
DNA 1: GGGGCGCGTCATTCATTCCTGAACTAATTACGGGACGTCCGTTCTGATGGCATTTCATGCCGGGGG
DNA 2: CCCCCGGCATGAAATGCCATCAGAACGGACGTCCCGTAATTAGTTCAGGAATGAATGACGCGCCCC
In the case of B2, in the data set with YpdB-D53E [2], the binding result was “no binding”.
